Results reported in PMC11739670 (European Journal of Immunology, 2024).
Several values for one entry are separate records, joined by “and”; a condition that tells them apart may be missing. Identical values can stand only once.

B1: soluble human CD8αβ-Fc heterodimer (Fc fusion)
chain 1: not shown
chain 2: LQQTPAYIKVQTNKMVMLSCEAKISLSNMRIYWLRQRQAPSSDSHHEFLALWDSAKGTIHGEEVEQEKIAVFRDASRFILNLTSVKPEDSGIYFCMIVGSPELTFGKGTQLSVVDFLPTTAQPTKKSTLKKRVCRLPRPETQKGPLCSP
notes: CD8 alpha extracellular domain, human, Uniprot P01732, residues 22-182; CD8 beta extracellular domain, human, Uniprot P10966, residues 22-170; Cloned in pFUSE-hIgG1e3 behind a mouse kappa light-chain secretion signal; source: ExpiCHO, purified (protein A, gel filtration); copies: 1 + 1
B2: soluble human CD8αβ-Fc heterodimer (Fc fusion)
chain 1: not shown
chain 2: B1 chain 2
notes: CD8α extracellular domain, human, Uniprot P01732, residues 22-182; CD8β extracellular domain, human, Uniprot P10966, residues 22-170; Cloned into pFUSE-hIgG1e3 downstream of a mouse kappa light-chain secretion signal, subcloned into pcDNA3.1; source: ExpiCHO, purified (protein A, gel filtration on Superdex 200); copies: 1 + 1

Tests used:
Details in all cases: both partners purified
[1] = target: T1, MHCI-related protein 1 (MR1) with β2m, loaded with 6-formylpterin (human, UniProt Q95460 23-302; P61769 21-119, biotin on the Avi-tag (BirA ligase)); test: SPR; BIAcore T200, CM5 chip with streptavidin; biotinylated pMHCI, MR1 or CD1 captured; serial dilution of CD8-Fc fusion injected; 25°C, PBS with 0.005% Tween 20; steady-state responses, 1:1 Langmuir fit
T1 construct: MR1 heavy chain, human; beta-2 microglobulin; Small-molecule cargo: 6-formylpterin; Same protein chains as Dm11 and Dm13; they differ in the cargo only; also called MR1-6FP; not shown: Avi-tag, C-terminal, kept

[2] = target: T2, MHCI-related protein 1 (MR1) with β2m, loaded with 5-formyl salicylic acid (human, UniProt Q95460 23-302; P61769 21-119, biotin on the Avi-tag (BirA ligase)); test: as above
T2 construct: MR1 heavy chain, human; beta-2 microglobulin; Small-molecule cargo: 5-formyl salicylic acid; Same protein chains as Dm11 and Dm12; they differ in the cargo only; also called MR1-5FSA; not shown: Avi-tag, C-terminal, kept

[3] = target: T3, MHCI-related protein 1 (MR1) with β2m, loaded with 5-(2-oxopropylideneamino)-6-d-ribitylaminouracil (human, UniProt Q95460 23-302; P61769 21-119, biotin on the Avi-tag (BirA ligase)); test: as above
T3 construct: MR1 heavy chain, human; beta-2 microglobulin; Small-molecule cargo: 5-OP-RU; Same protein chains as Dm12 and Dm13; they differ in the cargo only; also called MR1-5OPRU; not shown: Avi-tag, C-terminal, kept

[4] = target: HLA-A*02:01 with peptide … (human | , biotin on the Avi-tag (BirA ligase)); test: as above
[5] = target: HLA-A*03:01 with peptide … (human | , biotin on the Avi-tag (BirA ligase)); test: as above
[6] = target: HLA-A*01:01 with peptide … (human | , biotin on the Avi-tag (BirA ligase)); test: as above
[7] = target: HLA-A*02:01 with peptide … (human | , biotin on the Avi-tag (BirA ligase)); test: as above; remark: listed apart in the source
[8] = target: HLA-A*01:01 peptide-MHC class I (biotinylated pMHCI) (human | , biotin on the Avi-tag (BirA ligase)); test: SPR; biotinylated ligands (pMHCI, MR1, CD1) captured on streptavidin coupled to a CM5 chip; serial dilution of each CD8-Fc fusion injected; steady-state responses, 1:1 Langmuir fit; BIAcore T200, 25°C, PBS with 0.005% Tween 20
[9] = target: T4, MHCI-related protein 1 (MR1) with β-2 microglobulin, biotinylated, loaded with model ligands (human | , UniProt Q95460 23-292; P61769 21-119, biotin on the Avi-tag (BirA ligase)); test: as above
T4 construct: MR1 heavy chain, human; β-2 microglobulin; Small-molecule cargoes: 5-(2-oxopropylideneamino)-6-d-ribitylaminouracil, 6-formylpterin, 5-formyl salicylic acid; not shown: Avi-tag, C-terminal, kept

[10] = target: HLA-A*02:01 peptide-MHC class I (biotinylated pMHCI) (human | , biotin on the Avi-tag (BirA ligase)); test: as above

Row | Binder | Kd [1] | Kd [2] | Kd [3] | Kd [4] | Kd [5] | Kd [6] | Kd [7] | Kd [8] | Kd [9] | Kd [10]
1 | B1 | 250 µM and 220 µM | 267 µM and 285 µM | 228 µM and 233 µM | 255 µM and 244 µM | 147 µM | 101 µM | 238 µM | – | – | –
2 | B2 | – | – | – | – | – | – | – | 107 µM | ~250 µM | 189 µM and ~230 µM
